Source: the DeepSol protein solubility set

assay: soluble on expression in E. coli; label from the status in PepcDB or PDB records

| Sequence | soluble on expression in E. coli |
| --- | --- |
| MSLTEAPRVRLVGAEIFERPVEFRFPFRFGAARVTNAPQAFVRVRVEDASGRSTIGRSAEMMMPKWFDKNPSLSPEDNVGQLRASLRLAAEGLKSLQAETAFGLHVAAETEHHQAAATHGLPPLVASYGLALLDRAILDAVCRMMGACAAEAVRNNLLGVSGVAAPDLAGFDLTRFLSRLNVSSRLAVRHTIGLADVLTVADLGAMQRPADGLPQTLEDVIAAYGHRYFKIKVSGRPAEDIERLVAIAAILDDRVGDYRATLDGNEQFENIDLVCDLLDRIEEEPRLKRLRASMLFFEQPIARAEALSKPVVAAAQRMPLEIDESDGDMGAFLRARELGYAGISSKSCKGFYRALINRARVEKWNAEAGSSHYFMSAEDLTTQAGLALQQDLVLASLVGAGHVERNGHHYVDGMAGAPEGEQLAYLSHHGDLYEGAAGQTRLAIQAGEITFATALRSVGLGSSVDPDWAAMRPVSEGHHHHHH | not soluble |
| MTWLTKDGRFAVYEDPFVTKLMNTIGSMTFDGLGFTLLELYRDLVISADNYFMNYVNYGETPHDVGEESIEDPIYGASYPYWWTDLGPTLVLMLYRDYVFTSNREILEKNYNKIKEIIDWLIRKDMDNDCIPDSKGGYDNSYDGTHMYGASSYIASMFLSALTAFIKMSEILDVKIDDKYYRFLECGKKTFNSLWNGKYFILWKKNDEENTSCLNSQLLGQFWCDILGLPPITDHDKINTALRSIYELNFKASKYCLTNAVREDGSVDSSTAQLRSCWPRVSFAVAAHMILRGMVKEGIEVAKREWETIKELNPFDQSSRIDAIDGKYVGLMSYIGSTSVWLLKLALDKIRLEHHHHHH | not soluble |
| ARDTLFVNLTDATDSQSLKLSDFGNTVRYVPLETNEVCLIGNNPHIALLEDKIVIATKDQCFLFHKQTGKYICSIGHIGDDPSGYSSTNYWIDDAGLFYFFRAPDQLLKYNQKGEMTGKIQIPHIPAAPDFFAFSDSTIIAHCNSSIGLESSNSLLFLNSFGEKLDSIPNLLKSPSIPSPDNISSLSIIKRGAGFFGNLGRRGVMIIKDKEQGELLLPLYNPSLWSSENEVRFRETFTDTIYTIKNRKLYPYMVFHTDTDHSSANPLWYSNPQSIYVAYVLENTHSVFFQYVKNKQVYNGLYNKETQQTKFAKCQQFIVDDLTSEQELKVDLSALCSYKGEYGFILEAASIPDASQKQSDNKNENIPHWMSQLDEDANPVIAIVSDK | soluble |
| NIEQGLYAMLGVYVSSKTIDVVQVGFNRSKMALIITKQEQAVKEAVLQKIDRGVTKISAVGGYTDDDRPILMCVVGQTEFTKLKQIVKQIDESAFVIVADASEVLGEGFKRA | not soluble |
| MENKIQELTDKIYREGVEKGNEEAQRLIANAQEEAKKIIEDARKEADSIVAASRKSADELADNTKSELKLFSGQAVNALKSEIATMVTDKLITASVKDFAQDKDYLNAFIVALASKWSVDEPIVISTADAESLKKYFAAHAKALLDKGVTIEQVNGIKTLFTVSPADGSYKVNFGEEEFMNYFKAFLRPQLVEMLF | not soluble |
| MKYTQSFCFVSVIVLSSSVHLHGQNNKMNVLLIIADDMRPELGCYGIEDIVTPRLDSLARYATVFQNAYCNIPVSGASRASLFTGMYPRYPNRFTAFDASAEKDCPEALSLPECFKKNGYYVVSNGKVFHNITDHADSWSEAPWRVHPDGYGKDWAEYNKWELWQNEESSRYVHPKTLRGPFCESADVADTTYIDGRVAQKTIADLRRLHKKEKPFFLACGFWKPHLPFNAPKKYWDLYRREEIHLAQNPYRPKALPKQVTSSGEIRGYGKFVTTKDETFQREAKHGYYACVSYIDAQIGLILDELDRLGLSENTIVVILGDHGWHLGEHGFWGKHNLMNHATRAPLIVRVPHCRGGKAKGIVEFVDIYPTLCELCGVPMPKDQLQGKSFVPILQDSGKKTKQYAFIQWKGGYNIVSEQYSSTIWLQGDSVVARMIFDRQLDASENENKVHCPYLSRERDKLEAQIKIRKSQLLEHHHHHH | not soluble |
| MDPKKADIIRLEALPQDLLGGIVAKVGATTAEDFHNCILVCKELGASANDKHVFKTLNLALLVKKPLSGTQTPSYYENMS | soluble |
| MKLSKRQEQIIAVVKEHQPVSGERISDILAVSRATLRSDLSFLTLSGILKASPKVGYTYESDNMEAFFFFDVFQTKVQEIMSPPLMVAQDTSIRDAITNLFMYDVGSLYVMDEAKELLGVLSRKDLLRASLNTNIDGTPVAVCMTRVPHVKTCTPEFTILEAADTLQKYEVDSLPVVEKENPKKVIGKITKTKILTYITQQAKEAAQNR | not soluble |
| MPQESSDAKRIEPPRKVDFMLKPRFTNTVPDVPFDAKFMTCPFVPLGRFVEFQPAAIYRDYKHAVICDDDMGLNVDLIDLKKYDEDPIETEIDEKDNILLEDDGAAKLIAKRSQQHSKLVPWMRKTEYISTEFNRFGVTADRQETKLGYNLKKNQQVEDMYRDKQSQIDAINKTFEDVRKPVKEHYSKKGVKAVEESFVFPDFDHWKHLFAHVQFDGDTITTEFEEEDERQQARESSVIKAMEFEDQKFAAVFVPTIGCLTSFMDDLELERPFDEDMKYEFLLSREYTFKMEHLPPRDRDVFIMYHRNNVFQYNEVDCNVKMTRKPKMALSRKSKLTLTYRNPSELEQKDMNKREAELYEQPKTRKQEILEKIQEKKEEGGDSSDQSSDSDDDKPQKSRSDSSSDVSSDDDSPRKKEPTVDSDSD | not soluble |
| MGVTLAKGGNVSLSKAAPNLTQVMIGLGWDARSTTGAPFDLDASALLCREGRVLGDEWFVFYNQLKSPDGSVEHTGDNLTGEGEGDDESILVDLSTVPAQVDKIVFPVSIHEADNRGQTFGQVSNAFIRVVNQADGQELARYDLSEDASTETAMIFGEVYRYGGEWKFRAVGQGYASGLRGIVQDFGVSVS | not soluble |
| MSQRPTSSHDSSAPHHIPVDDCLTYDTGYRPNLPGQRTWWVFCPVTGAFDNSYALLGAMIECVARGQATLAPAWDRTFAGGIWYDFDCGADVLDGRLLMDMAVDDMQRRIERYMSTNDGQMGCKPALGFR | not soluble |
| MKVSKFGGSSVSNATQIKKVLNIVNSDPERKIVIVSAPGKRHDNDIKTTDLLIRLYEKVINHLDYHDKKREIIQRYDDIVKELQMDESILRTIDVTLEHYINQLKNEPKRLLDALLSCGEDFNAQLIALYNNSQGIPTKYISPKEAGIFVTDVPQEAQILDSAYSEIKKLRDYDEKLIIPGFFGVSHEGYIVTFPRGGSDITGAIISSGVRATIYENFTDVSGIYKANPNIIKDPELIEEITYREMRELSYAGFSVFHDEALQPLYKDRIPVVIKNTNRPQDKGTFIVHDREINAKNVISGISCDKDFTVINIKKYLMNRQVGFTRKILGVLEDNNISFDHMPSGIDTISIVMRSKQIQNKETKVLNEIRQKCDVDELSIEHDLAILMIVGEGMNKVIGTANKITHALAESKINLKMINQGASEISMMFGIHVDDAEKAVLSTYEFCYHGVALKNLCDKNMAGDPLEHHHHHH | not soluble |
| MKTNVIIDGDACPVVNSVIELTKGTGIFVTILRSFSHFSQQIQPEHVKIVYVDDGPDAVDYKIVELASNNDIVITQDYGLASLLIDKVHTVMHHKGNIYHSNNIQSLLDQRYLNAQIRRRGGRHKGPPPFTTEDRLKFEHAFRKIINQILEHHHHHH | soluble |
| MSLRHVIREVRADLIASPVQTGFQDATRKVETVGMCVIRVNTDQGLTGIGVTYHEVGGEAIKEMIERYYGPKLIGRDPFETEEIWEELFHYARGVGRKGLSFCALSAVDIALWDLKGKIMDLPLYRLLGGNKKKVPVYASGGWTSYDDDALVAEALEMVRRGYKMIKLKVGVEGGRNIRRDTQRCRKVREAIGPDIGFMVDANNAFHSGDAVRLANEIREYDILFFEEPVFADDIPGLRRFRQGTDIPLGTGEHEYTRYGARDLILGEAVDYLQMDVTRCGGITEMLKVIALSQAWNLAFAPHAMEHIHMHLVSAAANGAFLERLFLFEDITAMVFKDAPVPEEGILTIPDKPGLGLELNSEFLREGHHHHHH | soluble |
| MSTFFRQTAQAMIAKHINRFPLLKLDQVIDWQPIEQYLNRQKTRYLRDHRGRPAYPLLSMFKAVLLGQWHSLSDPELEHSLITRIDFNLFCRFDELSIPDYSTLCRYRNWLAQDDTLSELLELINCQLTEKGLKVEKASAAVIDATIIQTAGSEQRQAIEVDEEGQISGQTTPSKDSDARWIKKNGLYKLGYKQHTRTDAEGYIEKLHITPANAHECKHLSPLLEGLPEGTTVYADKGYDSAENRQHLEEHQLLDGIMSKACRNRPLSEVQTKRNRYLSKTRYSGLNLNQDKATKPQTVQIVRQGEATPYWFKFNPLYVVEQSFGTLHRKFRYARAAYFGLIKVSAQSHLKAMCLNLLKAANRLSAPAAA | not soluble |
| MKLSFSLPPKSKSRVSLNSDRKDCIGAGNLKQFVTEFDPSETLTDSKPKYVIPPIEDRRRSYRSIDLPLPSASGLQFEAEIPSGDGSDNNITYGLNLRQKVENVEKPEPVEKMLLKSMRTDLESLPDAPEKEDFESFPVDGFGEALLAGYGWKPGQGIGLKAKEDVKIVEYEKWSGNEGFGFGKSDKAMKMIDNKLVGSGSHEEVKVGINKIENMEKDRVVRKRNRETEGESRTEVKACKQNYRGQTRETREKTSWLRSHIKVRIISKDVKGGRLYLKKAVVTDVVGPTSCDIAMDETQELVQGIDQELLETALPRRGGSVLVLSGRHKGVYGRLVEKDLDKETGVVCDADSQEMLHVKLDQVAEYIGDPADIGY | soluble |
| MGSDKIHHHHHHMTKNTVRTYIKQTWKTLTRSHQHLLESAQDTKLEHQPNTPWIIYISPQEDCNTVQSVLERSLSAKEMQQIEIRTLPSEVEAIQEHGLLYLPGAYVVPGGRFNEMYGWDSYFILLGLLQDEEWELAQSQVDQLLYQVQHYGTILNANRTYMLTRSQPPVLSMMVLALFQHTQDQAWLKSTLPLLEQFYYYWVVPPHLNSATGLSRYYALGEGAAPEVLFSELDETGRSHYERVKEYYKTFEIDDYDVSLFYDSERDELTDLFYKGDRSMRESGFDITNRFGPFSVDIVHYAPVCLNSLLYQMEQDLAQIHKILDNPELAEQWSDRATLRRERINQYLWDEEKGIYLDYHFYSGKRRHYEFATTFYPLWTGLSSPEQAQRIVENLSLFTAPGGIFTSTHVTGNQWDAPFGWAPLTLIAVQGLYRYGYRKEGDDIAHKFLTMAIQEFTKYGFFVEKYDVERCSAQVSDEICFGYSSNEIGFGWTNGVILELLANLDDS | not soluble |
| MGSDKIHHHHHHMKYDVAVYIGRFQPFHNGHLSVVQRSLEVAQHLLILTGSHLASPDTRNPWSSEEREEMIRAALPANWQKRVSFIPIRDHLYSDNLWLTEIQQKVLEEAGEEARIVLVGHRKDRSSYYLDLFPQWDFLEVPRLEAVHSTAIRDAYFSGSEESNYAAALPAGVADYLTAYQQTGRYQWLRDEADYIKGYRQAWAVAPYAPTFVTTDAIVIQSGHVLVVRRKARPGKGLIALPGGYIQQDETVLEGMLRELREETGLKVPKPVLQGSIVENRVFDAPQRSQRGRIITHAFCIHLKPGPLPSVRGGDDAEKAWWMSLADLYAHEDQFFEDHFQIIQHFVSRT | not soluble |
| MKFTETSLKLNPLTEITFFLTFGAKTMSNQWNSGIHDRKLKEEICEIGRRVYNKGFAAANDGNISIRVGENEVLCSPTMICKGFMKPDDICAVDLDGNQIAGTRKRTSEILLHLAIMKERPDVKAVVHCHPPHATAFAVAREPIPQCVLPEVEVFMGEVPMAPYETPGGQKFADTVVPFLKGGTNTIILTGHGTVTFGKSLEDAYWKTEILDAYCNILLLSKQLGRVTYFTENETRELLDLKKKLGFDDPRFHVEDCDLCGNSAFRDGYKEGIPQQKSFEPAPSYPGYLSKPSTQATPATNNGDSDQLIKAITDQVMSALGK | not soluble |
| GMDKLNEYRTKVRQLLTKHLQYKPSYGDVEVEQIFDEEHDHYQIISVGWNNQHRIYGPIMHLDIKNNKIWIQQNTTEADIALELMEMGIDKQDIVIGFHTPKMRQLSGFAVE | soluble |
| MAHHHHHHMGLKRLAKAAKITSKHMLLLNRREPYKPVTSDRVMIENRRRLEDFEAKNAEGIVFVPDTALPPWQKSIATNLKQQATQMNFRGFRVRVADKQDEPGFPTHFR | soluble |
